In paper PMC4159350, “Structure of the N-Terminal Gyrase B Fragment in Complex with ADP⋅Pi Reveals Rigid-Body Motion Induced by ATP Hydrolysis” (PLoS ONE, 2014):

Target: the molecule itself
Assay: crystal structure; GyrB43 incubated with a 15 fold molar excess of ATP and MgCl2 (hydrolysed to ADP.Pi), 50 mM Na-phosphate buffer; sitting drop, 20°C, 0.1 M tri-ammonium citrate pH 6.5, 25% PEG 2000; space group C2221, 1.8 Å; dimer by the crystallographic dyad

B1: 43 kDa N-terminal fragment of GyrB from E. coli (GyrB43) (domain or fragment)
chain: not shown
notes: DNA gyrase subunit B (GyrB), E. coli, residues 1-392, comprising the ATPase domain (20-220) and the transducer domain (221-392); amplified from E. coli genomic DNA; By the forward primer the His6 codons follow the start ATG and are followed by the codons of S2, N3, S4, Y5; No removal of the tag is described; The dimer is formed by a crystallographic two-fold axis (one monomer per asymmetric …)
**Q.** Does B1 bind?
**A.** Result: binds
